Numbering of substitutions follows the chain as printed.
T1: human OX40 on Jurkat-NF-Kb luc-hOX40 cells (human, UniProt P43489 29-277)
T1 sequence (looked up): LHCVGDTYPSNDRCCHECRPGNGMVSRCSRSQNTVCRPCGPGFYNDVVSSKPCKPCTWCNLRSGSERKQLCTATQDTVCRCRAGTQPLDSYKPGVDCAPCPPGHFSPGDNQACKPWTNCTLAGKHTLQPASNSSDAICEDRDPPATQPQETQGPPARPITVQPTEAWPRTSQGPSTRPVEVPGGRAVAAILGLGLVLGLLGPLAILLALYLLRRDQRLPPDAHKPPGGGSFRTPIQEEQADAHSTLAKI

T2: human OX40-FC-biotin (human OX40 recombinant protein with Fc tag, Acro Biosystems OX40-H5255, labeled with … (human, UniProt P43489 29-216, labeled with biotin (site not stated)))
T2 construct: range 29-216; Bought (Acro Biosystems OX40-H5255; printed once as OXO-H5255), expressed in HEK293; also called human Bio-OX40-FC; not shown: Fc tag of the bought protein
T2 sequence (looked up): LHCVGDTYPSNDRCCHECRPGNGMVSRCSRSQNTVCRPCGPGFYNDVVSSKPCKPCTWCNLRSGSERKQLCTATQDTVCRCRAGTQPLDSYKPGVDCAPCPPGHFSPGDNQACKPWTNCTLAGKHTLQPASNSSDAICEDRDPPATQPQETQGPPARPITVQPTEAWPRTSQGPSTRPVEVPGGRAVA

T3: human OX40 (antigen of the ELISA of Example 4) (human, UniProt P43489 29-216, limits assumed)
T3 construct: either human OX40-His or human OX40-Fc-biotin
T3 sequence (looked up): T2 sequence (looked up)

B1: chimeric antibody Ch2G3 (antibody, V domains shown)
VH: QVQLKESGPGLVASSQSLSITCTVSGFSLSRYSVHWVRQPPGKGLEWLGMIWDGGNTDYNSALKSRLSISKDNSKSQVFLKMNSLQTDDTAMYYCARNPLYFSYAMDYWGQGTSVTVSS
VL: DIQMTQSTSSLSASLGDRVTISCRASQDISNYLNWYQQKPDGTVKLLIIYTSRLQSGVPSRFSGSGSGTDYSLTISNLEQEDIATYFCQQVNTFPFTFGSGTKLEIK
B2: chimeric antibody Ch4B5 (antibody, V domains shown)
VH: QVQLKQSGPGLVQPSQSLSITCTVSGFSLTSYGLHWFRQSPGKGLEWLGVIWSGGSTDYNAAFISRLSISKDDSKSQVFFKMNSLQADDTAIYYCAREEYDVWGTGTTVTVSS
VL: B1 VL with S7T, T8A, I49Y, Q55H, I83V, V91G, F94L, F96W, S100G
B3: humanized antibody 2G3-hu6 (antibody, human IgG1, V domains shown)
VH: QVQLQESGPGLVKPSQTLSLTCTVSGFSLSRYSVHWVRQPPGKGLEWIGMIWDGGNTDYAAPVKGRFTISRDDSKNTLYLQMNSLKTEDTAVYYCARNPLYFSYAMDYWGQGTLVTVSS
VL: DIQMTQSPSSLSASVGDRVTITCRASQDISNYLNWYQQKPDQSPKLLIIYTSRLQSGVPSRFSGSGSGTDYTLTISSLQPEDFATYYCQQVNTFPFTFGQGTKLEIK
notes: hu2G3 VH1.2 + hu2G3 VL1
B4: humanized antibody 2G3-hu2 (antibody, human IgG1, V domains shown)
VH: QVQLQESGPGLVKPSETLSLTCTVSGGSISRYSVHWIRQPPGKGLEWIGMIWDGGNTDYNSALKSRVTISVDTSKNQFSLKLSSVTAADTAVYYCARNPLYFSYAMDYWGQGTLVTVSS
VL: B3 VL
notes: hu2G3 VH2 + hu2G3 VL1
B5: humanized antibody 2G3-hu4 (antibody, human IgG1, V domains shown)
VH: B4 VH
VL: B3 VL with D41G, Q42K, S43A, I49Y
notes: hu2G3 VH2 + hu2G3 VL2
B6: murine monoclonal antibody m4B5 (antibody, V domains shown)
VH: B2 VH
VL: B1 VL with S7T, T8A, I49Y, Q55H, I83V, V91G, F94L, F96W, S100G
notes: Murine hybridoma monoclonal
B7: murine monoclonal antibody m2G3 (antibody, V domains shown)
VH: B1 VH
VL: B1 VL
notes: Murine hybridoma monoclonal
B8: humanized antibody hu4B5-V1 (antibody, human IgG1, V domains shown)
VH: QVQLQESGPGLVKPSETLSLTCTVSGFSLTSYGLHWIRQPPGKGLEWIGVIWSGGSTDYNAAFISRVTISVDTSKNQFSLKLSSVTAADTAVYYCAREEYDVWGQGTTVTVSS
VL: DIQMTQSPSSLSASVGDRVTITCRASQDISNYLNWYQQKPGKVPKLLIYYTSRLHSGVPSRFSGSGSGTDFTLTISSLQPEDVATYYCQQGNTLPWTFGGGTKVEIK
notes: hu4B5 VH0 + hu4B5 VL0
B9: humanized antibody 2G3-hu3 (antibody, human IgG1, V domains shown)
VH: QVQLQESGPGLVKPSETLSLTCTVSGYSISRYSVHWVRQPPGKGLEWIGMIWDGGNTDYNSALKSRFTISRDNSKNTLYLQMNSLRAEDTAVYYCARNPLYFSYAMDYWGQGTLVTVSS
VL: B3 VL with D41G, Q42K, S43A, I49Y
notes: hu2G3 VH1 + hu2G3 VL2
B10: humanized antibody hu4B5-V14 (antibody, human IgG1, V domains shown)
VH: B8 VH with Q5K, I37F, I48L, V67L, V71K, D72E, T73D, N76S, F78V
VL: B8 VL with K42G, V43T, P44V, F71Y, Y87F
notes: hu4B5 VH4 + hu4B5 VL4; human IgG1 / human Kappa constant regions
B11: humanized antibody hu4B5-V16 (antibody, human IgG1, V domains shown)
VH: B8 VH with V71K, D72E, T73D
VL: B8 VL with K42G, F71Y
notes: hu4B5 VH1 + hu4B5 VL2; human IgG1 / human Kappa constant regions
B12: humanized antibody 2G3-hu1 (antibody, human IgG1, V domains shown)
VH: B9 VH
VL: B3 VL
notes: hu2G3 VH1 + hu2G3 VL1
B13: humanized antibody hu4B5-V10 (antibody, human IgG1, V domains shown)
VH: B8 VH with Q5K, I37F, V71K, D72E, T73D, N76S, F78V
VL: B8 VL with F71Y
notes: hu4B5 VH3 + hu4B5 VL1; human IgG1 / human Kappa constant regions
B14: humanized antibody hu4B5-V22 (antibody, human IgG1, V domains shown)
VH: B8 VH
VL: B8 VL with K42G, V43T, P44V, F71Y, Y87F
notes: hu4B5 VH0 + hu4B5 VL4; human IgG1 / human Kappa constant regions
B15: humanized antibody hu4B5-V18 (antibody, human IgG1, V domains shown)
VH: B8 VH
VL: B8 VL with K42G, F71Y, P80Q
notes: hu4B5 VH0 + hu4B5 VL3; human IgG1 / human Kappa constant regions
B16: humanized antibody hu4B5-V23 (antibody, human IgG1, V domains shown)
VH: B8 VH with V71K, D72E, T73D
VL: B8 VL with K42G, V43T, P44V, F71Y, Y87F
notes: hu4B5 VH1 + hu4B5 VL4; human IgG1 / human Kappa constant regions
B17: humanized antibody hu4B5-V4 (antibody, human IgG1, V domains shown)
VH: B8 VH with Q5K, I37F, V71K, D72E, T73D, N76S, F78V
VL: B8 VL
notes: hu4B5 VH3 + hu4B5 VL0; human IgG1 / human Kappa constant regions
B18: humanized antibody hu4B5-V25 (antibody, human IgG1, V domains shown)
VH: B8 VH with Q5K, I37F, V71K, D72E, T73D, N76S, F78V
VL: B8 VL with K42G, V43T, P44V, F71Y, Y87F
notes: hu4B5 VH3 + hu4B5 VL4; human IgG1 / human Kappa constant regions
B19: humanized antibody 2G3-hu7 (antibody, human IgG1, V domains shown)
VH: B3 VH
VL: B3 VL with D41G, Q42K, S43A, I49Y
notes: hu2G3 VH1.2 + hu2G3 VL2
B20: humanized antibody 2G3-hu5 (antibody, human IgG1, V domains shown)
VH: B9 VH with S61A, S74A
VL: B3 VL with D41G, Q42K, S43A, I49Y
notes: hu2G3 VH1.1 + hu2G3 VL2
B21: humanized antibody hu4B5-V19 (antibody, human IgG1, V domains shown)
VH: B8 VH with V71K, D72E, T73D
VL: B8 VL with K42G, F71Y, P80Q
notes: hu4B5 VH1 + hu4B5 VL3; human IgG1 / human Kappa constant regions
B22: humanized antibody hu4B5-V2 (antibody, human IgG1, V domains shown)
VH: B8 VH with V71K, D72E, T73D
VL: B8 VL
notes: hu4B5 VH1 + hu4B5 VL0; human IgG1 / human Kappa constant regions
B23: humanized antibody hu4B5-V6 (antibody, human IgG1, V domains shown)
VH: B8 VH
VL: B8 VL with F71Y
notes: hu4B5 VH0 + hu4B5 VL1; human IgG1 / human Kappa constant regions
B24: humanized antibody hu4B5-V15 (antibody, human IgG1, V domains shown)
VH: B8 VH
VL: B8 VL with K42G, F71Y
notes: hu4B5 VH0 + hu4B5 VL2; human IgG1 / human Kappa constant regions
B25: humanized antibody hu4B5-V8 (antibody, human IgG1, V domains shown)
VH: B8 VH with V71K, D72E, T73D
VL: B8 VL with F71Y
notes: hu4B5 VH1 + hu4B5 VL1; human IgG1 / human Kappa constant regions
B26: humanized antibody hu4B5-V21 (antibody, human IgG1, V domains shown)
VH: B8 VH with Q5K, I37F, V71K, D72E, T73D, N76S, F78V
VL: B8 VL with K42G, F71Y, P80Q
notes: hu4B5 VH3 + hu4B5 VL3; human IgG1 / human Kappa constant regions

biological target: T1, human OX40 on Jurkat-NF-Kb luc-hOX40 …; assay: cell-based or functional assay

| EC50 (nM), in vitro activation of reporter gene (luciferase, Jurkat-NF-Kb luc-hOX40 cells with Raji cells, anti-CD3 coated) | Binder |
| --- | --- |
| 0.637 nM | B1 |
| 0.559 nM | B2 |

biological target: T2, human OX40-FC-biotin (human OX40 …); assay: capture ELISA, biotin-OX40-Fc
Experimental: 20xPBS buffer was diluted to 1 xwith deionized water. […] 100 μL of the diluted primary antibody was added to each well (the antibody to be tested was 5-fold diluted from the concentration of 10000 ng/ml, resulting in seven gradients, namely 10000 ng/ml, 2000 ng/ml, 400 ng/ml, 80 ng/ml, 16 ng/ml, 3.2 ng/ml, and 0.64 ng/ml, blank wells merely contained dilution solution, i.e., 2.5% skimmed milk in PBST), and incubated at 37° C. for 40 minutes. The plate was washed for 4 times with PBST, human OX40-FC-biotin (Acro biosystem, OXO-H5255, labeled biotin) was diluted with 2.5% skimmed milk in PBST, 100 μl was added to each well, incubated at 37° C. for 40 min, and the plate was washed for 4 times with PB ST. 100 μL TMB developing solution was added to each well, incubated for 3-15 minutes in dark at room temperature, 50 μl stop solution (1M sulfuric acid) was added to each well. The parameters were set for the microplate reader, the OD value was read at 450-630nm, and the test data were saved.

| EC50 | binding result | Binder |
| --- | --- | --- |
| 0.82 µg/mL |  | B3 |
| 1.6 µg/mL |  | B4 |
| 2.27 µg/mL |  | B5 |
| 0.208 µg/mL |  | B2 |
| 0.58 µg/mL |  | B6 |
| 0.867 µg/mL |  | B7 |
| 0.59 µg/mL |  | B8 |
|  | binds | B9 |
| 0.536 µg/mL |  | B10 |
|  | binds | B11 |
| 0.886 µg/mL |  | B12 |
| 0.76 µg/mL |  | B13 |
|  | binds | B14 |
|  | binds | B15 |
|  | binds | B16 |
|  | binds | B17 |
|  | binds | B18 |
| 0.743 µg/mL |  | B19 |
|  | binds | B20 |
|  | binds | B21 |
|  | binds | B22 |
|  | binds | B23 |
|  | binds | B24 |
|  | binds | B25 |
|  | binds | B26 |

biological target: T3, human OX40 (antigen of the ELISA of …); assay: ELISA on human OX40 (Example 4, steps as in Example 2), OD450 against log concentration of antibody

| EC50 (read off the curve) | Binder |
| --- | --- |
| ~0.01 µg/mL | B1 |
| ~0.03 µg/mL | B7 |

biological target: T3, human OX40 (antigen of the ELISA of …); assay: as above; remark: another data set of the same source

| EC50 (read off the curve) | Binder |
| --- | --- |
| ~0.02 µg/mL | B2 |
| ~0.04 µg/mL | B6 |

Reference: US20210355229A1 (JIANGSU HENGRUI MEDICINE, published 2021)
